B1: GpsB (natural protein, Streptococcus pneumoniae (strain R800), UniProt C1CIN3 1-109, looked up)
chain: MASIIFSAKDIFEQEFGREVRGYNKVEVDEFLDDVIKDYETYAALVKSLRQEIADLKEELTRKPKPSPVQAEPLEAAITSSMTNFDILKRLNRLEKEVFGKQILDNSDF
notes: GpsB of Streptococcus pneumoniae, PCR from chromosomal DNA of strain R800, cloned in pETPhos; In the SPR either coupled to the chip by its amino groups or injected as analyte; also called Spn-GpsB; source: E. coli BL21(DE3), purified (Ni-NTA agarose)
B2: DivIVA (natural protein)
chain: MPITSLEIKDKTFGTRFRGFDPEEVDEFLDIVVRDYEDLVRANHDKNLRIKSLEERLSYFDEIKDSLSQSVLIAQDTAERVKQAAHERSNNIIHQAEQDAQRLLEEAKYKANEILRQATDNAKKVAVETEELKNKSRVFHQRLKSTIESQLAIVESSDWEDILRPTATYLQTSDEAFKEVVSEVLGEPIPAPIEEEPIDMTRQFSQAEMEELQARIEVADKELSEFEAQIKQEVETPTPVVSPQVEEEPLLIQLAQCMKNQK

What was measured:
Experiment in all cases: SPR; BIAcore T100; EzrA or GpsB covalently coupled through amino groups to a CM5 chip; analytes 0.002-1 µM at 30 µL/min in 10 mM HEPES pH 7.4, 150 mM NaCl, 0.005% surfactant; apparent KD from the equilibrium signal (Req); triplicate
[1] = molecular target: EzrA without its N-terminal transmembrane domain (Streptococcus pneumoniae (strain R800))
Sequence of EzrA without its N-terminal transmembrane domain (Streptococcus pneumoniae (strain R800)) (B1IAY5 28-575 limits assumed): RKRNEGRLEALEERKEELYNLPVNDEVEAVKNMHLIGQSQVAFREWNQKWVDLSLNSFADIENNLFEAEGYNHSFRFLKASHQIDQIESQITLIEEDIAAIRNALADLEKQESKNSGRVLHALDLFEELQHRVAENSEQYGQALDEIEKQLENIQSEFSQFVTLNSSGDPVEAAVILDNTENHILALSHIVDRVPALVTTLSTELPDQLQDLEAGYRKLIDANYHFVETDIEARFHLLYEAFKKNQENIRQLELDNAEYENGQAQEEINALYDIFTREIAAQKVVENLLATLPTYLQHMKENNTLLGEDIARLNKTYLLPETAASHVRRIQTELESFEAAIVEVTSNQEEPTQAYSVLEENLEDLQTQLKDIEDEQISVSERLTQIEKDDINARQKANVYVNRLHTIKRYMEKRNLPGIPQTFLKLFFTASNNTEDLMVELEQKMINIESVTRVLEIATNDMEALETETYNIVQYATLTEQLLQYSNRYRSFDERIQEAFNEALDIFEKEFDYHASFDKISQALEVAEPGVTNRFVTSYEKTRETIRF

[2] = molecular target: T1, DivIVA (Streptococcus pneumoniae (strain R800), UniProt Q8CWP9 1-262); details: both partners purified
T1 construct: DivIVA of Streptococcus pneumoniae, PCR from chromosomal DNA of strain R800, cloned in pETPhos; also called Spn-DivIVA; DivVA; source: E. coli BL21(DE3), purified (Ni-NTA agarose)
T1 sequence (looked up): B2 chain

[3] = molecular target: T2, inactive cytoplasmic domain of StkP-K42R (Streptococcus pneumoniae (strain R800), UniProt Q8DNS0 1-342, K42R); details: both partners purified
T2 construct: also called StkP-K42R cytoplasmic domain; source: E. coli BL21(DE3), purified (Ni-NTA agarose)
T2 sequence: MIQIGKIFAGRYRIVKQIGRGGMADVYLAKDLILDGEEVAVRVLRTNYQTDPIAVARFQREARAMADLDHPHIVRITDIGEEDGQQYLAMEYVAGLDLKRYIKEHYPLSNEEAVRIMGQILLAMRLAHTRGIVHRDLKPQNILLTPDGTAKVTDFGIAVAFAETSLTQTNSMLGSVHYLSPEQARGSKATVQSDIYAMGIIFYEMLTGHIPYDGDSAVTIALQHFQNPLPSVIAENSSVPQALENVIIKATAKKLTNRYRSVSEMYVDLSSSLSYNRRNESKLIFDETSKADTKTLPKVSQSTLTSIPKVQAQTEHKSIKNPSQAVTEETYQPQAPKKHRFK

Molecule	Kd [1] [nM]	Kd [2] [nM]	Kd [3] [nM]
GpsB (from UniProt C1CIN3 1-109) (natural protein)	770		
FtsZ (from UniProt A0A0H2ZNE0 1-419) (natural protein)	295		
B1		85 ± 14	500 ± 60
B2	530		

Source: paper PMC3983041, “Interplay of the Serine/Threonine-Kinase StkP and the Paralogs DivIVA and GpsB in Pneumococcal Cell Elongation and Division” (PLoS Genetics, 2014)
